According to the MegaScale stability set (Tsuboyama et al. 2023):

B1: HEEH_KT_rd6_0007 (parent)
chain: SIEEEIKKAEEAKEKGKTFIHGDFVATTEELLDELLKRLRKKL

Variants of: B1
Test: folding stability dG (cDNA display proteolysis); higher = more stable
Details: PBS, room temperature

Folding stability dG [kcal/mol], by site and new letter:
E14: D 1.1, K 1.56, Q 1.42, A 1.73, S 1.4, I 1.45
I20: W 1.13, R 0.918, E 0.927, F 0.891, K 0.994, A 1.03, D 0.774, C 2.04, V 1.27, G 0.637, H 0.961, P 0.732, T 1.25, M 0.979, S 0.913, N 0.801, Q 1.27, L 0.842, Y 1.02
T28: L 1.3, A 0.936, K 0.472, Q 0.473, G 0.966, F 1.32, V 1.17, N 1.09, H 0.534, I 1.31, M 1.34, R 0.557, W 1.19, Y 0.985, D 0.797, E 0.679, S 1.15, C 1.98, P 0.562
K15: L 1.4, Q 1.4, E 0.916, I 0.793, N 1.32, M 1.37, D 0.807, G 1.08, W 1.07, F 1.15, H 1.3, Y 1.13, R 1.19, A 1.33, P 0.667, S 1.19, T 1.29, V 0.735
G22: S 0.873, W 1.53, H 1.02, Q 0.893, M 1.15, K 0.822, E 1.12, I 1.45, R 0.665, T 0.814, L 1.2, A 0.902, V 1.09, F 1.14, Y 1.23, D 0.958, N 0.979, P 0.931
K13: M 1.01, Q 0.869, N 0.575, W 1.09, R 1.3, P 0.543, V 0.79, Y 1.07, L 1.16, T 0.5, S 0.704
A26: C 1.24, R 0.603, G 0.7, W 1.24, H 0.502, K 0.515, S 0.724, Q 0.685, Y 1.6, P 0.691, N 0.638, F 1.2, V 0.954, E 0.506, D 0.604, I 1.27, T 0.686, M 0.854, L 1.03
E29: S 1.46, Q 1.41, H 1.2, T 1.55, W 1.78, D 1.21, V 1.65, A 1.63, F 1.47, C 2.15, Y 1.18, R 1.62, L 1.64, K 1.52, P 1.78, G 1.32, I 1.76, N 1.26, M 1.63
F24: G 0.708, D 0.649, R -0.367, E 0.854, C 1.49, A 0.492, W 1.22, P 0.489, H 0.746, T 0.846, V 0.78, L 0.965, Q 0.726, Y 1.02, K 0.243, S 0.627, M 0.889, I 1.03, N 0.509
T27: F 1.55, K 1.09, G 1.08, R 0.962, H 1.41, Y 1.62, E 1.24, W 1.66, Q 0.865, V 1.09, P 0.51, C 1.76, A 1.27, S 1.57, N 1.98, M 1.17, L 1.22, D 2.16, I 1.11
